Test results from US12576154B2, “Conjugates of PSMA-binding moieties with cytotoxic agents” (PHILOCHEM AG, priority 2022, dated 2026).

Columns and labels:
[1] = Body weight change during comparative therapy experiment (Example 4); format: in vivo, mice; details: 250 nmol/kg i.v. on days 8, 10, 12, n=5
Protocol: (§1) HT1080.hPSMA tumor cells were grown to 90% confluence and detached with Trypsin-EDTA 0.05%. Cells were resuspended in Hank's Balanced Salt Solution (HBSS) at a 5×10^7 cells/mL density. 100 μL of HT1080.hPSMA cells (5×10^6 cells) were injected subcutaneously in the right flank of female athymic Balb/c AnNRj-Foxn1 mice (6 to 8 weeks of age). Tumors were grown until volumes of −100 mm^3.
(§2) Tumor-bearing mice were randomized into groups of 5 and 0.1 mL of 50 μM solutions (2% DMSO, PBS, 250 nmol/kg) of the four conjugates (1 to 4), or saline solution (0.9% NaCl) was injected intravenously three times with 1-day break in between (days 8, 10, and 12 after tumor implantation).

HT1080.hPSMA xenografts [2] = assay: Payload study and combination therapy with L19-IL2 in HT1080.hPSMA tumor model (tumor volume); format: in vivo, mice; details: conjugates 250 nmol/kg i.v. days 7 and 11; L19-IL2 2.5 mg/kg i.v. days 8, 10, 12; n=3/4
Protocol: as §1, with “until an average” for “until”, “˜100 mm^3 was reached.” for “−100 mm^3.”
Tumor-bearing mice were randomized into groups of 3 or 4 animals. A 50 μM solution (2% DMSO, 250 nmol/kg; 100 μL) of Conjugate 1, 5, or 6, L19-IL2 (SEQ ID NO: 10, 0.5 mg/mL, 2.5 mg/kg; 100 μL), PBS (100 μL), or L19-IL2 buffer (NaH2PO4 6.7 mM, NaCl 20 mM, KCl 1.8 mM, Mannitol 133 mM, Tween80 0.1% v/v, Glycerol 1% w/v; 100 μL) was injected intravenously (i.e., systemic administration through tail-vein) with the following schedule:
Groups of Conjugates 1, 5, or 6: two separate injections with a 3-day break in between (day 7 and day 11 after tumor implantation).
L19-IL2 group: three separate injections with a 1-day break in between (day 8, day 10, and day 12 after tumor implantation).
Combination therapy groups: two separate injections of Conjugate 1, 5, or 6 with a 3-day break in between (day 7 and day 11 after tumor implantation) and three separate injections of L19-IL2 with a 1-day break in between (day 8, day 10, and day 12 after tumor implantation). […]

LNCaP tumor (PSMA+) = assay: MMAE release from conjugates in LNCaP tumor model (biodistribution by LC-MS); format: in vivo, mice
Protocol: LNCaP tumor cells were grown to 80% confluence and detached with Trypsin-EDTA 0.05%. Cells were resuspended in PBS at a density of 30×10^6 cells/mL. The cell suspension was further diluted 1:1 with Matrigel. 200 μL of LNCaP cells (3×10^6 cells) were injected subcutaneously in the left flank of female athymic Balb/c AnNRj-Foxn1 mice (6 to 8 weeks of age). Tumors were grown until volumes of 200-300 mm^3 were observed.
0.1 ml of 50 μM solutions (2% DMSO, PBS) of the four Conjugates (1-4) were injected intravenously into 4 of the mice (1 mouse per SMDC). The animals were sacrificed after 24 h and the following organs were extracted: blood, LNCaP tumor (PSMA+), heart, lungs, liver, kidney, spleen, stomach. The blood fraction was centrifuged, and the plasma (supernatant) was extracted. The organs were preserved at −80° C. before being used for further analysis.
Frozen plasma or mouse tissues (˜50 mg) were thawed and treated with 600 μL of an aqueous solution containing 95% acetonitrile (ACN), and 0.1% HCOOH were added to induce protein precipitation. 50 μL of a solution of d8-MMAE, 50 nM) was added as internal standard. Samples were then homogenized with a tissue lyser for 15 minutes at 30 Hz. After homogenization, samples were centrifuged (21'000 g for 10 minutes). The supernatant was collected and dried at room temperature with a rotary evaporator. Pellets were then resuspended in 1 mL of an aqueous solution containing 3% ACN and 0.1% of TFA and subsequently purified on Oasis HLB SPE columns. Eluates were dried under vacuum at room temperature. […] Peak areas of analytes and internal standards were integrated, and corresponding ratios were calculated. The ratios were then transformed into pmol/g of wet tissue using single-concentration external calibration points and corrected by the total weight of the sample analysed. The percentage of injected dose per gram (% ID/g) was finally calculated by normalizing the value based on the total dose injected into the mouse. […]

HT1080.hPSMA xenografts [3] = assay: Comparative therapy experiment in mice bearing HT1080.hPSMA xenografts (tumor volume); format: in vivo; details: 250 nmol/kg i.v. on days 8, 10, 12 after tumor implantation, n=5
Protocol: as §1, §2

SMILES: CC[C@H](C)[C@@H]([C@@H](CC(=O)N1CCC[C@H]1[C@H](OC)[C@@H](C)C(=O)N[C@H](C)[C@@H](O)c1ccccc1)OC)N(C)C(=O)[C@@H](NC(=O)[C@H](C(C)C)N(C)C(=O)OCc1ccc(NC(=O)[C@@H]2CCCN2C(=O)CNC(=O)CCCCCN2C(=O)CC(SC[C@H](N)C(=O)NCCCCCC(=O)NC[C@H]3CC[C@H](C(=O)N[C@@H](Cc4ccc5ccccc5c4)C(=O)NCCCC[C@H](NC(=O)N[C@@H](CCC(=O)O)C(=O)O)C(=O)O)CC3)C2=O)cc1)C(C)C (stereo partly drawn) [Conjugate 1]
- Toxicity (body weight change %) [1]: lowest toxicity
- In vivo anti-tumor activity, monotherapy (tumor volume) (HT1080.hPSMA xenografts [2]): slightly lower anti-cancer efficacy as compared to Conjugate 5
- MMAE release, experiment repeated with three mice each (LNCaP tumor (PSMA+); 24 h after intravenous injection, LNCaP tumor model, n=3): confirmed
- MMAE release (quantitative biodistribution) (LNCaP tumor (PSMA+); 24 hours after intravenous injection, 0.1 ml of 50 μM, 1 mouse per SMDC, LNCaP tumor and organs): Significant release of MMAE
- Complete remissions (HT1080.hPSMA xenografts [3]): 1/5
- Therapeutic efficacy (tumor volume change) (HT1080.hPSMA xenografts [3]): significant shrinkage of the tumors of all 5 mice
